Experimental findings from patent US20090060916A1 (published 2009) are described below.

Assay [1] deals with T1, human IL-13 (human, UniProt P35225 35-146, biotinylated on the Biacore chip).
T1 construct: also called hIL-13; recombinant human IL-13
In words: Biacore SPR, IL-13 surface, before and after DOM10-53-386. The method, then:
Analytes were passed over the antigen-coated flow-cell, with in-line referencing against a blank flow-cell, at a flow rate of 30 μl/min in HBS-EP running buffer (Biacore).
(In general: SPR reads the build-up and loss of mass on a sensor chip optically.)

The target of assay [2] is T1, human IL-13. The assay is described as follows: IL-13 receptor I RBA: FMAT beads, IL-13R alpha1/Fc. The method, then:
The plate was incubated for seven hours before being read in the 8200 cellular detection system (Applied Biosystems).

For assay [3], the target named is T1, human IL-13. In words: IL-13 sandwich ELISA, competition with coating antibody. The method, then: A MAXISORP™ plate (high protein binding ELISA plate, Nunc, Denmark) was coated overnight with 2.5 μg/ml coating antibody (Module Set, Bender MedSystems, Vienna, Austria), then washed once with 0.05% (v/v) Tween 20 in PBS before blocking with 0.5% (w/v) BSA 0.05% (v/v) Tween 20 in PBS. […] The plate was then incubated with TMB substrate (KPL, Gaithersburg, USA), and the reaction was stopped by the addition of HCl and the absorbance read at 450 nm.
On the technique in general: An ELISA detects its analyte on a solid surface through an enzyme-linked reagent.

For assay [4], the target named is T1, human IL-13. In words: assay not named ('Potency IC50').
Assay [5] deals with T2, human IL-4 (human, UniProt P05112 25-153, biotinylated in the receptor binding assay and on the Biacore chip).
T2 construct: also called interleukin-4; biotinylated IL-4
T2 sequence (looked up): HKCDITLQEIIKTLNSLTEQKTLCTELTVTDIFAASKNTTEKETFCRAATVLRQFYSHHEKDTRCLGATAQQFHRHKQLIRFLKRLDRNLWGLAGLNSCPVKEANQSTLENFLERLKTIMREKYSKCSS
The assay is described as follows: IL-4 RBA: ELISA, IL-4R/Fc coated, biotinylated IL-4. An excerpt:
(§1) The wells were washed three times with 0.1% (v/v) Tween 20 in PBS, followed by three washes with PBS, before blocking with 2% (w/v) BSA in PBS. […] The reaction was stopped by the addition of HCl and the absorbance read at 450 nm.

Assay [6] concerns the target T2, human IL-4. In words: DOM9 RBA (IL-4 RBA).
Source text: as §1

Assay [7] has as its target T1, human IL-13. The assay is described as follows: IL-13 Biacore.
Assay [8] has as its target T1, human IL-13. In words: cell-based or functional assay.
The target in another assay is cynomolgous IL-13 (cynomolgous, UniProt Q0PW92 19-132, The Biacore assay used biotinylated cIL-13 according to our card. The biotin cannot be carried in the letters.). The assay is described as follows: cell-based or functional assay.

Where “and” joins values, the source holds several entries; their conditions need not be identical. Equal values may be shown once.

T1 sequence (P35225 35-146 limits assumed): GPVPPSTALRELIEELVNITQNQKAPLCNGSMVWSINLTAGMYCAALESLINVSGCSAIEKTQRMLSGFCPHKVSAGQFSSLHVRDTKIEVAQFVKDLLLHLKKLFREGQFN
cynomolgous IL-13, sequence (Q0PW92 entry or part of it limits assumed, form in doubt): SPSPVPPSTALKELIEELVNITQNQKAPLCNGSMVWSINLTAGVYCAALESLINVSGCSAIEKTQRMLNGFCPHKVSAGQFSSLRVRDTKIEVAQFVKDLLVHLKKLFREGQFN

B1: DOM10-212 (other)
VL: DIQMTQSPSSLSASVGDRVTITCRASSVILNELHWYQQKPGKAPKLLISAVSRLQSGVPSRFSGSGSGTDFTLTISSLQPEDFATYYCLQTFWGPFTFGQGTKVEIKR
notes: Vk dAb
For the molecule B1, the binding result with human IL-13 [1] was “binds”.

B2: DOM10-270 (other)
VL: DIQMTQSPSSLSASVGDRVTITCRASSVILNELHWYQQKPGKAPKLLISAVSRLQSGVPSRFSGSGSGTDFTLTISSLQPEDFATYYCLQTFWGPYTFGQGTKVEIKR
notes: Vk dAb
On to B2, for which, in the assay with human IL-13 [1], the binding result was “binds”.

B3: DOM10-273 (other)
VH: EVQLLESGGGLVQPGGSLRLSCAASGFTFELEEMDWVRQAPGKGLEWVSSISGSGGSTYYADSVKGRFTISRDNSKNTLYLQMNSLRAEDTAVYYCAKAYTGFDYWGQGTLVTVSS
notes: VH dAb
The IC50 is the concentration needed to halve the response being measured. Molecule B3 came in with an IC50 in the assay with human IL-13 [2] of 600 nM.

B4: DOM10-275 (other)
VH: EVQLLESGGGLVQPGGSLRLSCAASGFTFDREEMDWVRQAPGKGLEWVSTISPSGRKTYYADSVKGRFTISRDNSKNTLYLQMNSLRAEDTAVYYCAKHGTGFDYWGQGTLVTVSS
notes: VH dAb
The molecule B4 yielded an IC50 with human IL-13 [2] of 1000 nM.

B5: DOM10-277 (other)
VH: EVQLLESGGGLVQPGGSLRLSCAASGFTFSSYEMDWVRQAPGKGLEWVSTISADGVTTYYADSVKGRFTISRDNSKNTLYLQMNSLRAEDTAVYYCAKAFDAFDYWGQGTLVTVSS
notes: VH dAb
As to B5, the binding result with human IL-13 [1] is “binds”.

B6: DOM10-276 (other)
VH: EVQLLESGGGLVQPGGSLRLSCAASGFTFRDYEMDWVRQAPGKGLEWVSSIGPSGSETYYADSVKGRFTISRDNSKNTLYLQMNSLRAEDTAVYYCAKAYTSFDYWGQGTLVTVSS
notes: VH dAb
In the assay with human IL-13 [2], B6 gave an IC50 of 3000 nM.

B7: DOM10-53-396 (other)
VH: GVQLLESGGGLVQPGGSLRLSCAASGFIFAWYDMGWARQAPGKGLEWVSSIGWHGNVTYYADSVKGRFTISRDNSKNTLYLQMNSLRAEDTAVYYCATAEDEPGYDYWGQGTLVTVSS
notes: VH dAb
In the case of B7, in the assay with human IL-13 [3], the IC50 is 0.055 nM and 0.03 nM.

B8: DOM10-53-475 (other)
VH: GVQLLESGGGLVQPGGSLRLSCAASGFTFAWYDMGWVRQAPGKGLEWVSSIDWHGKITYYADSVKGRFTISRDNSKNTLYLQMNSLRAEDTAVYYCATAEDEPGYDYWGQGTLVTVSS
notes: VH dAb
In the assay with human IL-13 [4], B8 yielded an IC50 of 0.046 nM.

B9: DOM10-53-612 (other)
VH: GVQLLESGGGLVQPGGSLRLSCAASGFAFAAYDMGWVRQAPGKGLEWVSSIDWKGMETYYADSVKGRFTISRDNSKNTLYLQMNSLRAEDTAVYYCATAEDEPGYDYWGQGTLVTVSS
notes: VH dAb
For the molecule B9, 20 nM corresponded to half-maximal inhibition with human IL-13 [4] (IC50).

B10: DOM10-53-531 (other)
VH: GVQLLESGGGLVQPGGSLRLSCAASGFTFAWYDMGWVRQAPGKGLEWVSSIDWKGGKTYYADSVKGRFTISRDNSKNTLYLQMNSLRAEDTAVYYCATAEDEPGYDYWGQGTLVTVSS
notes: VH dAb
As to B10, half-maximal inhibition with human IL-13 [4] (IC50) required 0.34 nM.

B11: DOM10-53-434 (other)
VH: GVQLLESGGGLVQPGGSLRLSCAASGFIFAWYDMGWVRQAPGKGLEWVSSIDWKGGKTYYADSVKGRFTISRDNSKNTLYLQMNSLRAEDTAVYYCATAEDEPGYDYWGQGTLVTVSS
notes: VH dAb
For the molecule B11, in the assay with human IL-13 [4], the IC50 was found to be 0.29 nM.

B12: DOM10-53-472 (other)
VH: GVQLLESGGGLVQPGGSLRLSCAASGFIFAWYDMKWVRQAPGKGLEWVSSIDWHGKITYYADSVKGRFTISRDNSKNTLYLQMNSLRAEDTAVYYCATAEDEPGYDYWGQGTLVTVSS
notes: VH dAb
In the case of B12, the IC50 with human IL-13 [4] is 0.054 nM.

B13: DOM10-208 (other)
VL: DIQMTQSPSSLSASVGDRVTITCRASSPITDGLAWYQQKPGKAPKLLIDTGSRLQSGVPSRFSGSGSGTDFTLTISSLQPEDFATYYCRQGAMGSYTFGQGTKVEIKR
notes: Vk dAb
For B13, the binding result with human IL-13 [1] is listed as “binds”.

B14: DOM10-224 (other)
VL: DIQMTQSPSSLSASVGDRVTITCRASPNIAVDLAWYQQKPGKAPKLLIRGVSRLQSGVPSRFSGSGSGTDFTLTISSLQPEDFATYYCRQGAMGSYTFGQGTKVEIKR
notes: Vk dAb
As to B14, the binding result with human IL-13 [1] was “binds”.

B15: DOM10-236 (other)
VH: EVQLLESGGGLVQPGGSLRLSCAASGFTFPKYDMMWVRQAPGKGLEWVSSIDHLGVNTYYADSVKGRFTISRDNSKNTLYLQMNSLRAEDTAVYYCAKESDWPSFDYWGQGTLVTVSS
notes: VH dAb
Consider B15, for which, in the assay with human IL-13 [1], the binding result is on record as “binds”.

B16: DOM9-112-210-DOM10-53-546 (bispecific antibody)
chain: EVQLLESGGGLVQPGGSLRLSCAASGFTFRNFGMGWVRQAPGKGLEWVSWIISSGTETYYADSVKGRFTISRDNSKNTLYLQMNSLRAEDTAVYYCAKSLGRFDYWGQGTLVTVSSASTKGPSGVQLLESGGGLVQPGGSLRLSCAASGFVFPWYDMGWVRQAPGKGLEWVSSIDWKGGKTYYADSVKGRFTISRDNSKNTLYLQMNSLRAEDTAVYYCATAEDEPGYDYWGQGTLVTVSS
notes: in-line fusion, from pDOM5
As a reminder, the EC50 is the concentration needed to bring the measured effect to its halfway point. Higher therefore signals a need for much substance. Regarding B16, the IC50 with human IL-4 [5] was 4.3 nM and 6 nM. Also, the concentration giving a half-maximal response (EC50) with human IL-13 [3] is 1 nM.

B17: DOM10-276-ASTKGPS-DOM9-155-78 (bispecific antibody)
chain: EVQLLESGGGLVQPGGSLRLSCAASGFTFRDYEMDWVRQAPGKGLEWVSSIGPSGSETYYADSVKGRFTISRDNSKNTLYLQMNSLRAEDTAVYYCAKAYTSFDYWGQGTLVTVSSASTKGPSDIQMTQSPSSLSASVGDRVTITCRASRHIGDWLHWYQQKPGKAPKLLIAWASTLDSGVPSRFSGSGSGTDFTLTISSLQPEDFATYYCLQEGWGPPTFGQGTKVEIKR
notes: in-line fusion, from pDOM5
B17: the IC50 with human IL-4 [6] was found to be 5.02 nM. Also, in the assay with human IL-13 [7], the binding result is “binds”.

B18: DOM10-275-94 (other)
VH: EVQLLESGGGLVQPGGSLRLSCAASGFTFDVAEMDWVRQAPGKGLEWVSTISPSRRGTYYADSVKGRFTISRDNSKNTLYLQMNSLRAEDTAVYYCAKAYTGRSWWGPGTLVTVSS
In the case of B18, in the assay with human IL-13 [8], the “EC50, HEK293 STAT6 SEAP reporter assay, hIL-13” value (“EC50 … hIL-13” for short) was determined as 2.3 nM. The “EC50, HEK293 STAT6 SEAP reporter assay, cIL-13” value (from here on “EC50 … cIL-13”) in the assay with cynomolgous IL-13 was found to be 2 nM.

B19: DOM10-275-100 (other)
VH: GVQLLESGGGLVQPGGSLRLSCAASGFTFDSAEMDWVRQAPGKGLEWVSTISPSRRGTYYADSVKGRFTISRDNSKNTLYLQMNSLRAEDTAVYYCAKAYTGRSYWGPGTLVTVSS
Consider B19, for which the “EC50 … hIL-13” value with human IL-13 [8] was determined as 2.8 nM. In the assay with cynomolgous IL-13, the “EC50 … cIL-13” value amounted to 2.5 nM.

B20: DOM10-275-99 (other)
VH: EVHLLESGGGLVQPGGSLRLSCAASGFTFDSAEMDWVRQAPGKGLEWVSTISPSRRGTYYADSVKGRFTISRDNSKNTLYLQMNSLRAEDTAIYYCAKAYTGRSYWGPGTLVTVSS
B20: in the assay with human IL-13 [8], the “EC50 … hIL-13” value was found to be 2.8 nM. In addition, the “EC50 … cIL-13” value with cynomolgous IL-13 was found to be 2 nM.

B21: DOM10-275-101 (other)
VH: GVQLLESGGGLVQPGGSLRLSCVASGFTFDVAEMDWVRQAPGKGLEWVSTISPSRRGTYYADSVKGRFTISRDNSKNTLYLQMNSLRAEDTAVYYCAKAYTGRSLWGPGTLVTVSS
As to B21, the “EC50 … hIL-13” value with human IL-13 [8] is 3.6 nM and 2 nM. The “EC50 … cIL-13” value with cynomolgous IL-13 is 1.8 nM.

B22: DOM10-213 (other)
VL: DIQMTQSPSSLSASVGDRVTITCRASQAIPWGLNWYQQKPGKAPKLLIYDVSSLQSGVPSRFSGSGSGTDFTLTISSLQPEDFATYYCQQDIHIPMTFGQGTKVEIKR
notes: Vk dAb
With B22, the binding result in the assay with human IL-13 [1] is reported as “binds”.

B23: DOM10-176 (other)
VL: DIQMTQSPSSLSASVGDRVTITCRASQWIGPYLNWYQQKPGKAPKLLIYMGSYLQSGVPSRFSGSGSGTDFTLTISSLQPEDFATYYCQQDLYPPYTFGQGTKVEIKR
notes: Vk dAb
In turn, B23 had an IC50 in the assay with human IL-13 [2] of 100 nM.

B24: DOM10-215 (other)
VL: DIQMTQSPSSLSASVGDRVTITCRASQNIFADLNWYQQKPGKAPKLLIYMGSRLQSGVPSRFSGSGSGTDFTLTISSLQPEDFATYYCQQDYKFPLTFGQGTKVEIKR
notes: Vk dAb
Consider B24, for which the binding result with human IL-13 [1] is listed as “binds”.
